Substrate in data set [1]: CCCCCCCC=O
The data set can be described thus: GC headspace quantification of alkane product. In kind it is biochemical, Synechococcus elongatus. The settings on record: NADH/PMS reducing system, catalase, 80 uM ferrous ammonium sulfate, 100 mM HEPES, 100 mM KCl, pH 7.2, 37 °C.

Substrate in data set [2]: CCCCCCC=O
The data set can be described thus: GC headspace quantification of alkane product. It is filed as biochemical, Synechococcus elongatus. As to conditions: NADH/PMS reducing system, catalase, 80 uM ferrous ammonium sulfate, 100 mM HEPES, 100 mM KCl, pH 7.2, 37 °C.

Substrate in data set [3]: CCCCCCCCC=O
The data set can be described thus: GC headspace quantification of alkane product. In kind it is biochemical, Synechococcus elongatus. As to conditions: NADH/PMS reducing system, catalase, 80 uM ferrous ammonium sulfate, 100 mM HEPES, 100 mM KCl, pH 7.2, 37 °C.

Substrate in the data set “purified protein”: CCCCCC=O
In words: purified protein. The settings on record: NADH/PMS reducing system, catalase, 80 uM ferrous ammonium sulfate, 100 mM HEPES, 100 mM KCl, pH 7.2, room temperature.

B1: cADO-1593 (Synechococcus elongatus PCC 7942 = FACHB-805) (protein)
chain: MPQLEASLELDFQSESYKDAYSRINAIVIEGEQEAFDNYNRLAEMLPDQRDELHKLAKMEQRHMKGFMACGKNLSVTPDMGFAQKFFERLHENFKAAAAEGKVVTCLLIQSLIIECFAIAAYNIYIPVADAFARKITEGVVRDEYLHRNFGEEWLKANFDASKAELEEANRQNLPLVWLMLNEVADDARELGMERESLVEDFMIAYGEALENIGFTTREIMRMSAYGLAAV
notes: full length, codon-optimized gene in pET-28a, His-tag (nickel column), E. coli BL21(DE3); apo enzyme reconstituted with Fe(II)
As to B1, the Km (in general, the concentration of substrate that gives half-maximal velocity) was 180 ± 30 µM in data set [1], 590 ± 70 µM in data set [2], 69 ± 8.7 µM in data set [3] and 930 ± 100 µM in “purified protein”. Further, the kcat – broadly, the number of substrate molecules converted per active site and unit of time at saturation – in data set [1] was 0.0233 ± 0.001 s⁻¹; in data set [2], 0.0132 ± 0.0005 s⁻¹; in data set [3], 0.0102 ± 0.000333 s⁻¹; in “purified protein”, 0.03 s⁻¹. Besides, the kcat/Km (in general, the turnover number divided by the Michaelis constant) in data set [1] worked out at 130 ± 5 M⁻¹ s⁻¹; in data set [2] it was 21.7 ± 1.67 M⁻¹ s⁻¹; in data set [3], 150 ± 8.33 M⁻¹ s⁻¹; in “purified protein” it was 31.7 M⁻¹ s⁻¹.

B2: cADO-1593 (Synechococcus elongatus PCC 7942 = FACHB-805; A121F) (protein)
chain: MPQLEASLELDFQSESYKDAYSRINAIVIEGEQEAFDNYNRLAEMLPDQRDELHKLAKMEQRHMKGFMACGKNLSVTPDMGFAQKFFERLHENFKAAAAEGKVVTCLLIQSLIIECFAIAFYNIYIPVADAFARKITEGVVRDEYLHRNFGEEWLKANFDASKAELEEANRQNLPLVWLMLNEVADDARELGMERESLVEDFMIAYGEALENIGFTTREIMRMSAYGLAAV
notes: as for B1
Take B2: the Km in data set [1] came out at 180 ± 36 µM; in data set [2] it was 560 ± 60 µM; in data set [3], 140 ± 22 µM; in the data set “purified protein”, 960 ± 50 µM. The kcat is 0.0163 ± 0.001 s⁻¹ in data set [1], 0.025 ± 0.00167 s⁻¹ in data set [2], 0.0128 ± 0.000667 s⁻¹ in data set [3] and 0.115 s⁻¹ in “purified protein”. In addition, the kcat/Km in data set [1] amounted to 90 ± 5 M⁻¹ s⁻¹; in data set [2], 45 ± 3.33 M⁻¹ s⁻¹; in data set [3], 90 ± 5 M⁻¹ s⁻¹; in “purified protein”, 120 M⁻¹ s⁻¹.

The values above are taken from paper PMC5007808, “Structure-oriented substrate specificity engineering of aldehyde-deformylating oxygenase towards aldehydes carbon chain length” (Biotechnology for Biofuels, 2016).
